Holding throughout (experiment): SPR, Langmuir fit
Background: Surface plasmon resonance follows binding to a sensor surface in real time, without labels.

In assay [1] the target is T1, human SIRPγ isoform 1 (human, UniProt Q9P1W8 29-147).
T1 construct: also called SIRPg; sirpg
The essentials: (§1)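 Dissociation rate constants (koff) were measured on a ProteOn XPR36 instrument by Langmuir model fitting. Antibody clones in scFv-Fc format were captured from pre-filtered culture media onto a GLC chip with about 4000 RU of amine-coupled anti-human IgG Fc. SIRP analytes ran in PBS pH 7.4 with 0.01% Tween-20 at 25° C, and the model used was 1:1, applied to data double-referenced against interspot and buffer-blank responses.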

Assay [2] concerns the target T2, cynomolgus SIRP-α D1 domain (cyno2) (cynomolgus monkey, UniProt Q5TFQ8 30-148 (human entry), limits assumed).
T2 chain: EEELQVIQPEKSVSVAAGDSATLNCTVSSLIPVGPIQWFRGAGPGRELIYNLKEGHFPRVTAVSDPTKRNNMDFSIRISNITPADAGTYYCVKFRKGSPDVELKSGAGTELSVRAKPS
The method in brief: as §1

Assay [3] addresses T3, human SIRPβ isoform 1 (human, UniProt O00241 30-148).
T3 construct: also called SIRPb; sirpb1
The method in brief: as §1

Assay [4] deals with T4, C57BL/6 mouse SIRP-α D1 domain (mouse (C57BL/6 strain), UniProt P97797 32-148).
T4 sequence: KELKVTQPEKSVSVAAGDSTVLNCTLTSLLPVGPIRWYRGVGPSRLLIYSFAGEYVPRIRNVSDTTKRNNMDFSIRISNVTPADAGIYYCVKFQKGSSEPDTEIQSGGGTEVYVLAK
The method in brief: as §1

Assay [5] concerns the target T5, NOD mouse SIRP-α D1 domain (mouse (NOD strain)).
T5 chain: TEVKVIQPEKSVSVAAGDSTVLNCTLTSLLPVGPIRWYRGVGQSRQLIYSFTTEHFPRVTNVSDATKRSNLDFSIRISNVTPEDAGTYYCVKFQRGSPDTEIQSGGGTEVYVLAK
The essentials:
as §1

Assay [6] concerns the target T6, mouse 129 SIRP-α D1 domain (mouse (129 strain), UniProt P97797 32-150).
T6 construct: also called m129
T6 chain: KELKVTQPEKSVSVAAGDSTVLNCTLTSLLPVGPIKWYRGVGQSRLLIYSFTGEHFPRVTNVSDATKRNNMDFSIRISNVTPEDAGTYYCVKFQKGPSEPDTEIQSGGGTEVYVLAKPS
The method in brief:
as §1

In assay [7] the target is T7, cynomolgus SIRP-α D1 domain (cyno1) (cynomolgus monkey, UniProt Q5TFQ8 30-148 (human entry), limits assumed).
T7 chain: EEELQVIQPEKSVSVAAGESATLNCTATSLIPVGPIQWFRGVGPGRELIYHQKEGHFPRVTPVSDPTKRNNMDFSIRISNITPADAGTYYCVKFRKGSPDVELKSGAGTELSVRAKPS
The method in brief:
as §1

For assay [8], the target named is T8, human SIRP-α v1 D1 domain (human, UniProt P78324 31-149).
T8 construct: also called human v1
T8 sequence (P78324 31-149 limits assumed): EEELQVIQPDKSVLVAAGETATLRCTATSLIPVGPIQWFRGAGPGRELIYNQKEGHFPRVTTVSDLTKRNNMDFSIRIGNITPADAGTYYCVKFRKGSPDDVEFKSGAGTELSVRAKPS
The essentials:
as §1

The target in assay [9] is T9, high affinity SIRP-α D1 variant CV1-3.
T9 chain: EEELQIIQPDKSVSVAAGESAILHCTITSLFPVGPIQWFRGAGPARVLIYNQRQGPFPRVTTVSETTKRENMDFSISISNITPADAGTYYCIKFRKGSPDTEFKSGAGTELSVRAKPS
The method in brief: as §1

Assay [10] concerns the target T10, human SIRP-α v2 D1 domain (human).
T10 construct: also called human v2
The method in brief:
as §1

T10 sequence (chain, as listed by the source limits assumed): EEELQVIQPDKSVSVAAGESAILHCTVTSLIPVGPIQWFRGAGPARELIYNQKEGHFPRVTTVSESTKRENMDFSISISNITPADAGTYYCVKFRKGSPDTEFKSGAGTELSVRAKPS
T1 sequence (Q9P1W8 29-147 limits assumed): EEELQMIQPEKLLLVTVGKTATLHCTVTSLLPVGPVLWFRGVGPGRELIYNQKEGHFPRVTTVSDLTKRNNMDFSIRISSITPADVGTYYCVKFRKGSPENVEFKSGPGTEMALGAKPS
T3 sequence (O00241 30-148 limits assumed): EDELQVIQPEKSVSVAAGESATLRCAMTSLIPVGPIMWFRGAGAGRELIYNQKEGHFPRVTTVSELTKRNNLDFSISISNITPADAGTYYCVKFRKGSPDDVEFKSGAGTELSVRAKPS

B1: S76 (scFv, V domains shown)
VH: DVQLVESGGGVVRPGESLRLSCAASGFTFSSYAMSWVRQAPGKGLEWLAGISAGGSDTYYIDSVKGRFTISRDNSKNSLYLQMNSLTAEDTAVYYCARETWNHLFDYWGLGTLVTVSS
VL: ALTQPASVSANPGETVKITCSGGDWYSTYYGWYQQKSPGSAPVTVIHSDDKRPSDIPSRFSGSASGSAATLTITGVRVEDEAVYYCAGYDGRTYINTFGAGTTLTVL
notes: also called clone 76
What is called koff is the rate constant with which the complex falls apart. A low value points to slow dissociation. Take B1: the koff in assay [1] turned out to be 0.000177 s⁻¹; in assay [2] it was 0.000269 s⁻¹; in assay [3], 0.000187 s⁻¹; in assay [4], 0.000998 s⁻¹; in assay [5] it was 0.000576 s⁻¹; in [6], 0.000179 s⁻¹. The koff is 0.000277 s⁻¹ in [7], 0.00014 s⁻¹ in assay [8], 0.000155 s⁻¹ in [9] and 0.000209 s⁻¹ in assay [10].

B2: S23 (scFv, V domains shown)
VH: DVQLVESGGGVVRPGESLRLSCAASGFTFSSHAMSWVRQAPGKGLEWLAGISAGGSDTYYIDSVKGRFTISRDNSKSSLYLRMNSLTAEDTAVYYCARETWNHLFDYWGLGTLVTVSS
VL: ALTQPASVSANPGETVKITCSGGDYYSTYYAWYQQKSPGSAPVTVIHSDDERPSDIPSRFSGSASGSAATLIITGVRVEDEAVYFCGGYDGRTYINTFGAGTTLTVL
notes: also called clone 23
Regarding B2, the koff in assay [1] was determined as 0.000104 s⁻¹; in [2], 0.000183 s⁻¹; in [3], 0.000114 s⁻¹; in assay [4], 0.00132 s⁻¹; in assay [5], 0.000823 s⁻¹; in [6], 0.000134 s⁻¹. Also, the koff in assay [7] was determined as 0.00016 s⁻¹; in assay [8], 8.35e-05 s⁻¹; in assay [9], 0.000106 s⁻¹; in assay [10], 0.000135 s⁻¹.

B3: S17 (scFv, V domains shown)
VH: DVQLVESGGAVVRPGESLRLSCAASGFTFSSYAMSWVRQAPGKGLEWLAGISAGGSDTYYIDSVKGRFTISRDNSENSLYLQMNSLTAEDTAVYYCARETWNHLFDYWGLGTLVTVSS
VL: ALTQPASVSANPGETVKITCSGGDWYSTYYGWYQQKSPGSAPVTVIHSDDKRPSDIPSRFSGSASGSAATLTITGVRVEDEAVYYCAGYDGRTYINTFGAGTTLTVL
notes: also called clone 17
With B3, the koff in assay [1] stood at 0.000102 s⁻¹; in [2], 0.000207 s⁻¹; in [3] it was 0.000125 s⁻¹; in assay [4], 0.00113 s⁻¹; in assay [5], 0.000612 s⁻¹; in assay [6] it was 0.000234 s⁻¹. Further, the koff in assay [7] stood at 0.000193 s⁻¹; in [8] it was 0.000124 s⁻¹; in assay [9], 0.000154 s⁻¹; in assay [10], 0.000197 s⁻¹.

B4: S74 (scFv, V domains shown)
VH: DVQLVESGGGVVRPGESLRLSCAASGFTFSSNAMSWVRQAPGKGLEWLAGISAGDSDTYYPASVKGRFTISRDNPKNTLYLQMNTLTAEDTAVYYCARETWNHLFDYWGLGTLVTVSS
VL: ALTQPASVSANPGETVKIACSGGSYYSYYYGWYQQKSPGSALVTVIYSDDKRPSGIPSRFSGSASGSTATLTITGVRAEDEAVYYCGGYDYSSYTNDFGAGTTLTVL
notes: also called clone 74
In the case of B4, the koff was 0.000225 s⁻¹ in assay [1]; 0.00032 s⁻¹ in assay [2]; 0.000266 s⁻¹ in assay [3]; 0.00137 s⁻¹ in assay [4]; 0.000412 s⁻¹ in assay [6]; 0.000337 s⁻¹ in assay [7]. Further, the values for the koff in [8], in [9] and in assay [10] were 0.000161 s⁻¹, 0.000166 s⁻¹ and 0.000278 s⁻¹, respectively.

B5: S16 (scFv, V domains shown)
VH: DVQLVESGGGVVRPGESLRLSCAVSGFRFSSYAMSWVRQAPGKGLEWVSGISSGGDTYYVDSVKGRFTISRDNSKNTLYLQVNSLTAEDTAIYYCARETWNHLFDYWGLGTLVTVSS
VL: ALTQPASVSANLGETVKITCSGGDSSSHYYGWYQQKSPGSAPVTVIYSDDERPSDIPSRFSGSASGSTATLTITGVRVEDEAIYYCGAYDGSTYANTFGAGTTLTVL
notes: also called clone 16
For B5, the dissociation rate constant (koff) amounted to 8.17e-05 s⁻¹ in [1]; 0.000138 s⁻¹ in assay [2]; 0.000113 s⁻¹ in assay [3]; 0.00235 s⁻¹ in assay [4]; 0.00128 s⁻¹ in assay [5]; 0.000176 s⁻¹ in assay [6]. Further, the koff in assay [7] worked out at 0.000132 s⁻¹; in assay [8], 6.22e-05 s⁻¹; in [9] it was 0.0001 s⁻¹; in assay [10], 0.000111 s⁻¹.

B6: S30 (scFv, V domains shown)
VH: DVQLVESGGGVVRPGESLRLSCEASGFTFSSDAMSWVRQAPGKGLEWVSGISSGSSTYYGGSVKGRFTISRDNSKNTLYLQMNSLTAEDTAVYYCARETWNHLFDYWGLGTLVTVSS
VL: ALTQPASVSASPGETVEITCSGGSDSSYYYGWYQQKSPGSAPVTVIYSDNKRPSNIPSRFSGSASGSTATLTITGVRVEDEAVYYCGGYDYSTYTNPFGAGTTLTVL
notes: also called clone 30
Turning to B6, the koff stood at 0.000193 s⁻¹ in [1]; 0.000366 s⁻¹ in assay [2]; 0.000237 s⁻¹ in assay [3]; 0.00244 s⁻¹ in [4]; 0.000476 s⁻¹ in assay [6]; 0.000335 s⁻¹ in assay [7]. Besides, the koff was found to be 0.000132 s⁻¹ in assay [8], 0.000142 s⁻¹ in [9] and 0.000188 s⁻¹ in [10].

B7: S59 (scFv, V domains shown)
VH: DVQLVESGGGVVRPGESLRLSCAVSGFRFSSHAMSWVRQAPGKGLEWVSGISSGGDTYYVDSVKGRFTISRDNSKNTLYLQVNSLTAEDTAIYYCARETWNHLFDYWGLGTLVTVSS
VL: ALTQPASVSANLGETVKITCSGGDSSSHYYGWYQQKSPGSAPVTVIYSDDERPSDIPSRFSGSASGSTATLTITGVRVEDEAIYYCGAYDGSTYANTFGAGTTLTVL
notes: also called clone 59
For B7, the koff in assay [1] came to 4.28e-05 s⁻¹; in assay [2], 0.000113 s⁻¹; in assay [3], 0.000107 s⁻¹; in assay [4], 0.00239 s⁻¹; in [5], 0.00135 s⁻¹; in [6], 0.000209 s⁻¹. Also, the koff in assay [7] was 0.000106 s⁻¹; in [8] it was 4.98e-05 s⁻¹; in [9], 8.19e-05 s⁻¹; in assay [10], 8.63e-05 s⁻¹.

B8: S27 (scFv, V domains shown)
VH: DVQLVESGGGVVRPGESLRLSCAVSGFRFSSYAMSWVRQAPGKGLEWVSGISSGGDTYYVDSVKGRFTISRDNSKNTLYLQVNSLTAEDTAIYYCARETWNHLFDYWGLGTLVTVSS
VL: ALTQPASVSADLGETVKITCSGGDSSSHYYGWYQQKSPGSAPVTVIYSDDERPSDIPSRFSGSASGSTATLTITGVRVEDEAIYYCGAYDGSTYANTFGAGTTLTVL
notes: also called clone 27; scFv-Fc form of AB27
As for B8, the koff came out at 9.46e-05 s⁻¹ in [1]; 0.000161 s⁻¹ in assay [2]; 8.97e-05 s⁻¹ in [3]; 0.00184 s⁻¹ in assay [4]; 0.0013 s⁻¹ in assay [5]; 0.000136 s⁻¹ in assay [6]. Besides, the koff is 0.000138 s⁻¹ in assay [7], 5.81e-05 s⁻¹ in [8], 8.94e-05 s⁻¹ in assay [9] and 9.97e-05 s⁻¹ in assay [10].

B9: S55 (scFv, V domains shown)
VH: DVQLVESGGGVVRPGESLRLSCAVSGFRFSSYAMSWVRQAPGKGLEWVSGISSGGDTYYVDSVKGRFTISRDNSKNTLYLQVNSLTAEDTAIYYCARETWNHLFDYWGLGTLVTVSS
VL: ALTQPASVSANLGETVEITCSGGDSSSHYYGWYQQKSPGSAPVTVIYSDDERPSDIPSRFSGSASGSTATLTITGVRVEDEAIYYCGAYDGSTYANTFGAGTTLTVL
notes: also called clone 55
In the case of B9, the koff in assay [1] amounted to 4.69e-05 s⁻¹; in [2], 0.000116 s⁻¹; in assay [3] it was 6.48e-05 s⁻¹; in assay [4], 0.00197 s⁻¹; in assay [5], 0.00119 s⁻¹; in assay [6] it was 0.000143 s⁻¹. The koff in assay [7] came to 9.63e-05 s⁻¹; in assay [8] it was 4.18e-05 s⁻¹; in [9], 6e-05 s⁻¹; in assay [10], 7.16e-05 s⁻¹.
